Data on 25 molecules can be found in patent publication US20140303084A1 (Biogen, published 2014).

To fix the notation:
B1: RRAPGKLTCLASYCWLFWTGIa (peptide)
peptide: RRAPGKLTCLASYCWLFWTGI[dA]
modifications: not fully specified (C-terminus, bridges); printed as RRAPGKLTCLASYCWLFWTGIa; cysteine pairing not given here
B2: RRK(PEG2-Biotin)PGKLTCLASYCWLFWTGIA (peptide)
peptide: RRK([PEG2″-Biotin])PGKLTCLASYCWLFWTGIA
modifications: not fully specified; printed as RRK(PEG2-Biotin)PGKLTCLASYCWLFWTGIA; cysteine pairing not given here
B3: RRAPGKLTCLASYCWLFWK(PEG2-Biotin)GIA (peptide)
peptide: RRAPGKLTCLASYCWLFWK([PEG2″-Biotin])GIA
modifications: not fully specified; printed as RRAPGKLTCLASYCWLFWK(PEG2-Biotin)GIA; cysteine pairing not given here
B4: RRAPGK(PEG2-Biotin)LTCLASYCWLFWTGIA (peptide)
peptide: RRAPGK([PEG2(3)-Biotin])LTCLASYCWLFWTGIA
modifications: not fully specified (bridges); printed as RRAPGK(PEG2-Biotin)LTCLASYCWLFWTGIA; cysteine pairing not given here
B5: RRAPGKLTCLASYCK(PEG2-Biotin)LFWTGIA (peptide)
peptide: RRAPGKLTCLASYCK([PEG2(3)-Biotin])LFWTGIA
modifications: not fully specified (C-terminus); printed as RRAPGKLTCLASYCK(PEG2-Biotin)LFWTGIA; cysteine pairing not given here
B6: RRAPGKLTCLASYCWLFWTGK(PEG2-Biotin)A (peptide)
peptide: RRAPGKLTCLASYCWLFWTGK([PEG2(3)-Biotin])A
modifications: not fully specified (C-terminus); printed as RRAPGKLTCLASYCWLFWTGK(PEG2-Biotin)A; cysteine pairing not given here
B7: PEG4-RRAPGKLTCLASYCWLFWTGIA (peptide)
peptide: [PEG4′]RRAPGKLTCLASYCWLFWTGIA
modifications: disulfide 10-15 (inferred); not fully specified (C-terminus); printed as PEG4-RRAPGKLTCLASYCWLFWTGIA
B8: RRAPGKLTCLASYCWK(PEG2-Biotin)FWTGIA (peptide)
peptide: RRAPGKLTCLASYCWK([PEG2(3)-Biotin])FWTGIA
modifications: not fully specified (C-terminus); printed as RRAPGKLTCLASYCWK(PEG2-Biotin)FWTGIA; cysteine pairing not given here
B9: RK(PEG2-Biotin)APGKLTCLASYCWLFWTGIA (peptide)
peptide: RK([PEG2(3)-Biotin])APGKLTCLASYCWLFWTGIA
modifications: not fully specified (C-terminus); printed as RK(PEG2-Biotin)APGKLTCLASYCWLFWTGIA; cysteine pairing not given here
B10: RRAK(PEG2-Biotin)GKLTCLASYCWLFWTGIA (peptide)
peptide: RRAK([PEG2(4)-Biotin])GKLTCLASYCWLFWTGIA
modifications: not fully specified (C-terminus); printed as RRAK(PEG2-Biotin)GKLTCLASYCWLFWTGIA; cysteine pairing not given here
B11: Glu(Biotinyl-PEG)-RAPGKLTCLASYCWLFWTGIA (peptide)
peptide: E([PEG-Biotin])RAPGKLTCLASYCWLFWTGIA
modifications: not fully specified; printed as Glu(Biotinyl-PEG)-RAPGKLTCLASYCWLFWTGIA; cysteine pairing not given here; reading uncertain
B12: RRAPGKLTCLASK(PEG2-Biotin)CWLFWTGIA (peptide)
peptide: RRAPGKLTCLASK([PEG2″-Biotin])CWLFWTGIA
modifications: not fully specified; printed as RRAPGKLTCLASK(PEG2-Biotin)CWLFWTGIA; cysteine pairing not given here
B13: RRAPGKLTCLASYCWLFWTGIK(PEG2-Biotin) (peptide)
peptide: RRAPGKLTCLASYCWLFWTGIK([PEG2(3)-Biotin])
modifications: not fully specified (C-terminus); printed as RRAPGKLTCLASYCWLFWTGIK(PEG2-Biotin); cysteine pairing not given here
B14: RRAPGKLTCLASYCWLK(PEG2-Biotin)WTGIA (peptide)
peptide: RRAPGKLTCLASYCWLK([PEG2″-Biotin])WTGIA
modifications: not fully specified; printed as RRAPGKLTCLASYCWLK(PEG2-Biotin)WTGIA; cysteine pairing not given here

Bridge positions count the residues as written; N and C are the ends. Square brackets hold non-standard residues; d marks the D form. Primed or numbered codes have the meaning given here. Side chains are listed from the residue outwards. Ends that are not written are not given here. * marks the point of attachment. Biotin = O=C1N[C@H]2[C@H](CS[C@H]2CCCCC(=O)*)N1; PEG2(3) = PEG2 spacer carrying biotin on Lys; PEG2″ = not defined here; PEG = not defined here; PEG2(4) = PEG2 spacer; PEG4′ = PEG4 spacer

The assay concerns the target human Factor IXa (human, UniProt P00740 47-191; P00740 227-461). The experiment in a line: cell-based or functional assay.
For the molecule B1, the “EC50 [µM], FXa generation assay” value was over 1 µM.

Take PLKWTASGCRWLGCIQLARFAY-NH2 (cysteine pairing not given here) [compound B]: the “EC50 [µM], FXa generation assay with hFIXa” value is over 1 µM.

Turning to RRAPGKLTCLASYCWLFWTGIA (not fully specified; C-terminal PEG4) [RRAPGKLTCLASYCWLFWTGIA-PEG4], the “EC50 [µM], FXa generation assay” value is under 0.5 µM.

As for B2, the “EC50 [µM], FXa generation assay” value was under 0.5 µM.

Consider CGGSGGRRAPGKLQCLASYCWLFWTGIAC, for which the “EC50 [µM], FXa generation assay” value was over 1 µM.

For RRAPGKK([PEG2(3)-Biotin])TCLASYCWLFWTGIA (cysteine pairing not given here) [RRAPGKK(PEG2-Biotin)TCLASYCWLFWTGIA], the “EC50 [µM], FXa generation assay” value is over 5 µM.

As to B3, the “EC50 [µM], FXa generation assay” value was under 0.5 µM.

In the case of B4, the “EC50 [µM], FXa generation assay” value was under 0.5 µM.

In the case of SKQGRPISPD[dR]RAAGKLTCLASYCWLFWTGIA-NH2 (cysteine pairing not given here) [compound 24], the “EC50 [µM], FXa generation assay with hFIXa” value is under 0.5 µM.

As for B5, the “EC50 [µM], FXa generation assay” value was under 0.5 µM.

Consider B6, for which the “EC50 [µM], FXa generation assay” value is under 0.5 µM.

For B7, the “EC50 [µM], FXa generation assay” value is under 0.5 µM.

Regarding CRRAPGKLQCLASYCWLFWTGIAGGSGGC, the “EC50 [µM], FXa generation assay” value was over 1 µM.

Turning to B8, the “EC50 [µM], FXa generation assay” value is over 1 µM.

In the case of RRAPGKLTCLK([PEG2(3)-Biotin])SYCWLFWTGIA (cysteine pairing not given here) [RRAPGKLTCLK(PEG2-Biotin)SYCWLFWTGIA], the “EC50 [µM], FXa generation assay” value is under 0.5 µM.

With B9, the “EC50 [µM], FXa generation assay” value was under 0.5 µM.

For B10, the “EC50 [µM], FXa generation assay” value is over 1 µM.

Regarding B11, the “EC50 [µM], FXa generation assay” value was over 4 µM.

For the molecule CGGSGGRRAPGKLQCLASYCWLFWTGIAGGSGGC, the “EC50 [µM], FXa generation assay” value is over 1 µM.

With CRRAPGKLQCLASYCWLFWTGIAC, the “EC50 [µM], FXa generation assay” value is over 1 µM.

Take RRAPGKLTCK([PEG2(3)-Biotin])ASYCWLFWTGIA (cysteine pairing not given here) [RRAPGKLTCK(PEG2-Biotin)ASYCWLFWTGIA]: the “EC50 [µM], FXa generation assay” value was under 0.5 µM.

Turning to QWQIAGQVLKRRAPAKLTCLASYCWLFWTGIA [QWQIAGQVLKRRAPA KLTCLASYCWLFWTGIA], the “EC50 [µM], FXa generation assay” value was under 0.5 µM.

On to B12, for which the “EC50 [µM], FXa generation assay” value is under 0.5 µM.

With B13, the “EC50 [µM], FXa generation assay” value is under 0.5 µM.

Regarding B14, the “EC50 [µM], FXa generation assay” value was over 1 µM.
